According to patent publication US6015560, “Antibody recognizing endothelial cell ligand for leukocyte CR3” (The Rockfeller University, dated 2000):

Each binder was assayed against T1, integrin complement receptor 3 (CR3) on human leukocytes (human, UniProt P11215) (assay: macrophages spread on peptide-coated wells; residual CD11b/CD18 detected with C3bi-coated erythrocytes).

Row | Binder | binding result
1 | AADPHQGVLAQGDIIMDAKG [FHA peptide Cc] | no binding (tested: wells coated with 0.5 mM peptide)
2 | GTLLLRNDALTENGTVTISA [FHA peptide Cd] | no binding (tested: wells coated with 0.5 mM peptide)
3 | RADPHQGVLAQGDIIMDAKG [FHA peptide Cb] | no binding (tested: wells coated with 0.5 mM peptide)

The binders below were run against T1, integrin complement receptor 3 (CR3) on … (assay: cell-based or functional assay).

Row | Binder | inhibition of adherence of human neutrophils to cultured endothelial cells [%]
4 | RPQITDAVTGEARKDESVVSDAALVADGGPIVVEAGELVSHAGGI [FHA peptide F] | < 15
5 | AKKLFLNGTLRAVNDNNETMSGRQIDVVDGRPQITDAVTGEARKD [FHA peptide E] | < 15
6 | FHA peptide G (peptide) peptide: IVVEAGELVSHAGGIGNGRNKENGASVTVRTTGNLVNKGYISAGKQGVLEVGGAL | < 15
7 | LEHSTIESKISQSVLAAKGDKGKPAVSVKVAKKLFLNGTLRAVND [FHA peptide D] | < 15
8 | RQDFFTPGSVVVRAQGNVTVGRGDPHQGVLAQGDIIMDAKGGTLL [FHA peptide B] | 29
9 | RGDPHQGVLAQGDIIMDAKGGTLLLRNDALTENGTVTISADSAVL [FHA peptide C] | 62
10 | IGALKAGAVEAASPRRAARRALRQDFFTPGSVVVRAQGNYTVGRGD [FHA peptide A] | < 15
